Assays:
Type in all cases: functional, cell-based
[1] = molecular target: T1, Solute carrier organic anion transporter family member 1A4 (Rattus norvegicus, UniProt O35913); test: (§1) TP_TRANSPORTER: uptake in Oatp2-expressing HeLa cells; conditions: human
T1 sequence (O35913 whole entry): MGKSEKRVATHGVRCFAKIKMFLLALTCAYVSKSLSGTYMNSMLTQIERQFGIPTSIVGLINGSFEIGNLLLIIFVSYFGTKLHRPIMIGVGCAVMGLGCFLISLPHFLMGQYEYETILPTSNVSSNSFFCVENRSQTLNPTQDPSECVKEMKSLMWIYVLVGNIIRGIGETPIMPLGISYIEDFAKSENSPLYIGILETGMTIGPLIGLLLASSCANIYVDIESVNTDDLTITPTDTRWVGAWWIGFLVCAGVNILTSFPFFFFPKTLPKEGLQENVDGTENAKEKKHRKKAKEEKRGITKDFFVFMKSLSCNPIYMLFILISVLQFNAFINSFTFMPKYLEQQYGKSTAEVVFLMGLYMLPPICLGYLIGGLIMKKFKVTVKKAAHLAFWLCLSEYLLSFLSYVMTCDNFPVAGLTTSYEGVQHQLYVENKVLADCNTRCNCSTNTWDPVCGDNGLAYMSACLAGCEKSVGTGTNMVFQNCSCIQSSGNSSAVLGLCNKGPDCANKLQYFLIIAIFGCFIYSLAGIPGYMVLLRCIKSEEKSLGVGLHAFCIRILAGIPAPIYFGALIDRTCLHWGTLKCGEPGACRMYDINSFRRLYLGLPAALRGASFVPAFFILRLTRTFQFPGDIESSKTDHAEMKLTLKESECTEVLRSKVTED

[2] = substrate: [H][C@]12CC[C@]3([H])[C@]([H])(CC[C@]4(C)C([C@H](C)CCC(=O)NCCS(=O)(=O)O)CC[C@@]34[H])[C@@]1(C)CC[C@@H](OS(=O)(=O)O)C2; test: TP_TRANSPORTER: uptake in Oatp1-expressing HeLa cells
[3] = substrate: [H][C@]12CC[C@]3([H])[C@]([H])(CC[C@]4(C)C([C@H](C)CCC(=O)NCCS(=O)(=O)O)CC[C@@]34[H])[C@@]1(C)CC[C@@H](OS(=O)(=O)O)C2; test: as §1

C[C@]12CC[C@@H]3c4ccc(O)cc4CC[C@H]3[C@@H]1CC[C@@H]2O[C@@H]1O[C@H](C(=O)O)[C@@H](O)[C@H](O)[C@H]1O [ESTRADIOL 17B GLUCURONIDE]
Activity [1]: substrate [+]

B1: Solute carrier organic anion transporter family member 1A1 (Rattus norvegicus) (protein)
chain: MEETEKKIATQEGRLFSKMKVFLLSLTCACLTKSLSGVYMNSMLTQIERQFDISTSVAGLINGSFEIGNLFFIVFVSYFGTKLHRPVVIGIGCVIMGLGCLLMSLPHFFMGRYEYETTISPTGNLSSNSFLCMENRTQTLKPTQDPAECVKEMKSLMWICVMVGNIIRGIGETPIVPLGISYIEDFAKSENSPLYIGILEMGKVAGPIFGLLLGSYCAQIYVDIGSVNTDDLTITPSDTRWVGAWWIGFLVCAGVNILTSIPFFFLPKALPKKGQQENVAVTKDGKVEKYGGQAREENLGITKDFLTFMKRLFCNPIYMLFILTSVLQVNGFINKFTFLPKYLEQQYGKSTAEAIFLIGVYSLPPICLGYLIGGFIMKKFKITVKKAAYLAFCLSVFEYLLFLCHFMLTCDNAAVAGLTTSYKGVQHQLHVESKVLADCNTRCSCSTNTWDPVCGDNGVAYMSACLAGCKKFVGTGTNMVFQDCSCIQSLGNSSAVLGLCKKGPECANRLQYFLILTIIISFIYSLTAIPGYMVFLRCVKSEEKSLGVGLHTFCIRVFAGIPAPVYFGALIDRTCLHWGTLKCGQRGACRMYDINSFRHIYLGLPIALRGSSYLPAFFILILMRKFQFPGDIDSSATDHTEMMLGEKESEHTDVHGSPQVENDGELKTKL
Km [2]: 12.6 µM

B2: Solute carrier organic anion transporter family member 1A4 (Rattus norvegicus) (protein)
chain: MGKSEKRVATHGVRCFAKIKMFLLALTCAYVSKSLSGTYMNSMLTQIERQFGIPTSIVGLINGSFEIGNLLLIIFVSYFGTKLHRPIMIGVGCAVMGLGCFLISLPHFLMGQYEYETILPTSNVSSNSFFCVENRSQTLNPTQDPSECVKEMKSLMWIYVLVGNIIRGIGETPIMPLGISYIEDFAKSENSPLYIGILETGMTIGPLIGLLLASSCANIYVDIESVNTDDLTITPTDTRWVGAWWIGFLVCAGVNILTSFPFFFFPKTLPKEGLQENVDGTENAKEKKHRKKAKEEKRGITKDFFVFMKSLSCNPIYMLFILISVLQFNAFINSFTFMPKYLEQQYGKSTAEVVFLMGLYMLPPICLGYLIGGLIMKKFKVTVKKAAHLAFWLCLSEYLLSFLSYVMTCDNFPVAGLTTSYEGVQHQLYVENKVLADCNTRCNCSTNTWDPVCGDNGLAYMSACLAGCEKSVGTGTNMVFQNCSCIQSSGNSSAVLGLCNKGPDCANKLQYFLIIAIFGCFIYSLAGIPGYMVLLRCIKSEEKSLGVGLHAFCIRILAGIPAPIYFGALIDRTCLHWGTLKCGEPGACRMYDINSFRRLYLGLPAALRGASFVPAFFILRLTRTFQFPGDIESSKTDHAEMKLTLKESECTEVLRSKVTED
Km [3]: 14.6 µM

— ChEMBL document CHEMBL2074146, “Transport of the sulfated, amidated bile acid, sulfolithocholyltaurine, into rat hepatocytes is mediated by Oatp1 and Oatp2” (Hepatology, 2002)
